Bridge positions count the residues as written; N and C are the ends. Ends that are not written are not given here.
What was measured:
[1] = biological target: TNF receptor (immobilized control); test: SPR, receptor immobilized, peptide injected
[2] = biological target: T1, ErbB3 extracellular domain (recombinant, soluble) (UniProt P21860 20-643, limits assumed); test: SPR; 10 µM peptide pre-injected over immobilized ErbB3; competitor: ErbB3 ectodomain (300 nM) with HRGβ1 (5 µM)
T1 construct: extracellular domain; Used both immobilized and as the injected analyte (300 nM, alone or with 5 µM HRGβ1); also called erbB3 ectodomain
T1 sequence (P21860 20-643 limits assumed): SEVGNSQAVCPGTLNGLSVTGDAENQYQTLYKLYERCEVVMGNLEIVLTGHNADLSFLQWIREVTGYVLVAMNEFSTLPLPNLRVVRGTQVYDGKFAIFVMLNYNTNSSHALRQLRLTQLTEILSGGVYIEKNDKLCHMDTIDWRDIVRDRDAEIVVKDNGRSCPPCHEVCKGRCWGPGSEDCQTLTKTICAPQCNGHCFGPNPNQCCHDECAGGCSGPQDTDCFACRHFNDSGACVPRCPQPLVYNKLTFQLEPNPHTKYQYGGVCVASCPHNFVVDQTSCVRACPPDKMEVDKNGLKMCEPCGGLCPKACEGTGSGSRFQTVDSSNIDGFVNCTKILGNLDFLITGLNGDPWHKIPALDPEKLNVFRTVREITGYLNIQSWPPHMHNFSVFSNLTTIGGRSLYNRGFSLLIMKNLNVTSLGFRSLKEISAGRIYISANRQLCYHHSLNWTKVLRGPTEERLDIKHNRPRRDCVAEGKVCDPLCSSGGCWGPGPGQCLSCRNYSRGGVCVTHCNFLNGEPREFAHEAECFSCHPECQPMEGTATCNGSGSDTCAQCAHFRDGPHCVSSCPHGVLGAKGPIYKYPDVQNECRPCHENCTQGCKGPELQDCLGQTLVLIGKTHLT

[3] = biological target: T2, ErbB2 extracellular domain (recombinant) (UniProt P04626 23-652, limits assumed); test: SPR; 10 µM peptide pre-injected over immobilized ErbB2; competitor: ErbB3 ectodomain (300 nM) with HRGβ1 (5 µM)
T2 construct: extracellular domain; also called erbB2 ectodomain; full-size erbB2 ectodomain

[4] = biological target: T3, ErbB1 extracellular domain (recombinant, soluble) (UniProt P00533 25-645, limits assumed); test: SPR; 10 µM peptide pre-injected over immobilized ErbB1; competitor: ErbB3 ectodomain (300 nM) with HRGβ1 (5 µM)
T3 construct: extracellular domain; also called erbB1 ectodomain; EGFr

B1: B2-S22-APE (peptide)
peptide: YCPIWKFPDEECY
modifications: disulfide 2-12 (inferred)
notes: Derived from the S22 repeat of erbB2
Kd [1]: > 1000 µM

B2: B1-S22-ALG (peptide)
peptide: YCLVWKYADAGCY
modifications: disulfide 2-12 (inferred)
notes: Derived from the S22 repeat of erbB1
Kd [1]: > 1000 µM

B3: B3-S22-APQ (peptide)
peptide: YCPIYKYPDVQCY
modifications: disulfide 2-12 (inferred)
notes: Derived from the S22 repeat of erbB3
Kd [1]: > 1000 µM

B4: B4-S22-AFD (peptide)
peptide: YCFIFKYADPDCY
modifications: disulfide 2-12 (inferred)
notes: Derived from the S22 repeat of erbB4
Kd [1]: > 1000 µM

B5: B2-S22-AFA (peptide)
peptide: YCFPDEEGACY
modifications: disulfide 2-10 (inferred)
notes: Cyclic peptide that mimics part of the S22 loop of erbB2
Kd [1]: > 1000 µM

B6: CD4-G (peptide)
peptide: FCYIGEVEDQCY
modifications: disulfide 2-11 (inferred)
notes: Negative control peptide; also called CD4 receptor-derived cyclic peptide; control peptide
Percent Inhibition [2]: 3.1%
Percent Inhibition [3]: -1.2%
Percent Inhibition [4]: 2.4%
Kd [1]: > 1000 µM

Source: patent US20100239587A1 (published 2010)
